Paper PMC12980445

System: MRA_0776 (Mycobacterium tuberculosis H37Ra)
Assay: BLI
Conditions: […] (pH not stated); BLI: PBST, 0.02% Tween-20, 30 C

dosR promoter (SN441-BIO)
Kd: 2880 nM
